Source: patent US20220025344A1 (Novartis, published 2022)

Assays:
[1] = molecular target: T1, Recombinant human LPL (mature human lipoprotein lipase, amino acids 28-475) (human, UniProt P06858 28-475); assay: crystal structure of the complex (data not shown)
T1 construct: also called LPL alone; hLPL
T1 sequence: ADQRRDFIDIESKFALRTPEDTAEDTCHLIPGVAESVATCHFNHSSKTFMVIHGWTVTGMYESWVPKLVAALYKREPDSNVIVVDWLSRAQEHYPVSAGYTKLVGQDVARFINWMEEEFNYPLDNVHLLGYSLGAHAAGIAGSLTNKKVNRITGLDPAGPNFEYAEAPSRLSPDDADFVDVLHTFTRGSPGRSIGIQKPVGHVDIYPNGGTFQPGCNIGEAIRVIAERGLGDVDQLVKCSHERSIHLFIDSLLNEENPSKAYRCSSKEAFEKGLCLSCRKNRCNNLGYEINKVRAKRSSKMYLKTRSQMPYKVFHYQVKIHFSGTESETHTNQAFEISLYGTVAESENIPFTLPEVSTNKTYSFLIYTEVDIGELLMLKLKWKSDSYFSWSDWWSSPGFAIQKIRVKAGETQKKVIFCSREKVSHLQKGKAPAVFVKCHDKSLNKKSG

His6-Human LPL(28-475) = molecular target: T2, His6-Human LPL(28-475) (human, UniProt P06858 28-475); assay: Ni-affinity co-purification of untagged GPIHBP1 with N-terminally 6-His tagged LPL (SDS-PAGE), then size exclusion chromatography against MW standards
T2 construct: also called N-terminally 6-His tagged LPL
T2 sequence: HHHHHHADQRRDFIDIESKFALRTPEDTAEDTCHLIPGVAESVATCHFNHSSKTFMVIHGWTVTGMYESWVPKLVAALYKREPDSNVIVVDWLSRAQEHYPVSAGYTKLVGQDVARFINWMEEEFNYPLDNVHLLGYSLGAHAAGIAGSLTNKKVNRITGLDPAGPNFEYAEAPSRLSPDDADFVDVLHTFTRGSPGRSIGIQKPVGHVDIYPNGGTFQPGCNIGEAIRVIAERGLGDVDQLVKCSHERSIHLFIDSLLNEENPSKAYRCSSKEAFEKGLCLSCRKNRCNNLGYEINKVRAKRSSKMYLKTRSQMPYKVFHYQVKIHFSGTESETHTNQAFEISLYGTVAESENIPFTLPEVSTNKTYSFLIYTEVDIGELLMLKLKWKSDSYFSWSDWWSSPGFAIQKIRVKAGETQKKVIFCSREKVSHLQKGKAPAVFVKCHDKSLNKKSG
Text: Initially an attempt was made to purify LPL protein by itself. In order to aid this purification, a variety of LPL constructs were synthesized that were either untagged or had N- or C-terminal tags. These LPL constructs were expressed in mammalian cells and purified using heparin chromatography or Ni-affinity chromatography. […] Co-expression of the purified soluble form of GPIHBP1 with LPL protected LPL against spontaneous inactivation (data not shown). GPIHBP1 was then co-expressed with LPL in the presence of LMF1 in the following manner: N-terminally 6-His tagged LPL, untagged GPIHBP1, and LMF1 were co-transfected in a ratio of 3:1:1 into HEK293T cells. The expressed protein complex was captured using Ni-affinity chromatography. […] Importantly, the presence of GPIHBP1 and LMF1 generated an LPL/GPIHBP1 complex that was homogenous and eluted as a ˜75 KDa complex during size exclusion chromatography (FIG. 1, panel C). This agreed well with the predicted molecular weight of a 1:1 LPL/GPHBP1 complex.

binding result [1]: binds
binding result (His6-Human LPL(28-475)): binds
B1: Human soluble GPIHBP1 (aa 21-151) (receptor)
chain: QTQQEEEEEDEDHGPDDYDEEDEDEVEEEETNRLPGGRSRVLLRCYTCKSLPRDERCNLTQNCSHGQTCTTLIAHGNTESGLLTTHSTWCTDSCQPITKTVEGTQVTMTCCQSSLCNVPPWQSSRVQDPTG
notes: also called untagged GPIHBP1; solGPIHBP1
